From article PMC5193401, “Redox Balance in Lactobacillus reuteri DSM20016: Roles of Iron-Dependent Alcohol Dehydrogenases in Glucose/ Glycerol Metabolism” (PLoS ONE, 2016)

Assays:
Assay in all cases: purified protein
Assay type in all cases: biochemical, Limosilactobacillus reuteri
purified protein [1] = substrate: NC(=O)C1=CN([C@@H]2O[C@H](COP(=O)(O)OP(=O)(O)OC[C@H]3O[C@@H](n4cnc5c(N)ncnc54)[C@H](O)[C@@H]3O)[C@@H](O)[C@H]2O)C=CC1; settings: 3-HPA reduction (standard 100 mM 3-HPA), 50 mM potassium phosphate pH 7.0, 30°C, pH 7.0, varied: cofactor
purified protein [2] = substrate: NC(=O)c1ccc[n+]([C@@H]2O[C@H](COP(=O)(O)OP(=O)(O)OC[C@H]3O[C@@H](n4cnc5c(N)ncnc54)[C@H](O)[C@@H]3O)[C@@H](O)[C@H]2O)c1; settings: 1,3-PDO oxidation (standard 500 mM 1,3-PDO), 50 mM Tris-HCl pH 9.0, 30°C, pH 9.0, varied: cofactor
purified protein [3] = substrate: O=CCCO; settings: 3-HPA reduction (standard 0.2 mM NADH), 50 mM potassium phosphate pH 7.0, 30°C, 3-HPA produced from glycerol by resting cells (equilibrates with hydrate and dimer), pH 7.0

B1: ADH7-His6 (Limosilactobacillus reuteri subsp. reuteri) (protein)
chain: MNRQFDFLMPSVNFFGPGVIAKIGDRAKMLNMHKPLIVTTEGLSKIDNGPVKQTVASLEKAGVDYAVFTGAEPNPKIRNVQAGKKMYQDENCDSIITVGGGSAHDCGKGIGIVLTNGDDISKLAGIETLKNPLPPLMAVNTTAGTGSELTRHAVITNEKTHLKFVVVSWRNIPLVSFNDPMLMLDIPKDITAATGCDAFVQAIEPYVSVDHNPITDSQCKEAIQLIQTALPEVVANGHNIEARTKMVEAEMLAGMAFNNANLGYVHAMAHQLGGQYDAPHGVCCALLLTTVEEYNLIACPERFAELAKVMGFDTTGLTLYEAAQKSIDGMREMCRLVGIPSSIKEIGAKPEDFEMMAKNALKDGNAFSNPRKGTVEDIVKLYQKAYDGIY
notes: full length 390 residues (42181 Da), His6 tag from pET21a kept, E. coli BL21(DE3), Ni-NTA purified
Km (purified protein [1]; error exceeds value): 0.04 ± 0.12 mM | Vmax (purified protein [1]; error exceeds value): 33 µmol/min/mg | kcat (purified protein [1]; error exceeds value): 11.3 ± 1.9 s⁻¹ | kcat/Km (purified protein [1]; error exceeds value): 282000 M⁻¹ s⁻¹ | Km (purified protein [2]): 1.2 ± 0.1 mM | Vmax (purified protein [2]): 4.1 µmol/min/mg | kcat (purified protein [2]): 3.2 ± 0.9 s⁻¹ | kcat/Km (purified protein [2]): 2670 M⁻¹ s⁻¹ | Km (purified protein [3]): 9.9 ± 1.1 mM | Vmax (purified protein [3]): 29.3 µmol/min/mg | kcat (purified protein [3]): 13.2 ± 3 s⁻¹ | kcat/Km (purified protein [3]): 1330 M⁻¹ s⁻¹

B2: PduQ-His6 (Limosilactobacillus reuteri subsp. reuteri) (protein)
chain: MEKYSMPTRIYSGTDSLKELETLNNERILLVCDSFLPGSDTLKEIESHIKDNNKCEIFSDVVPDPPLDKIMEGVQQFLKLKPTIVIGIGGGSALDTGKGIRFFGEKLGKCKINEYIAIPTTSGTGSEVTNTAVISDTKEHRKIPILEDYLTPDCALLDPKLVMTAPKSVTAYSGMDVLTHALESLVAKDANLFTVALSEEAIDAVIKHLVECYRHGDNVDARKIVHEASNIAGTAFNIAGLGICHSIAHQLGANFHVPHGLANTMLLPYVIAYNAEHSEEALHKFAIAAKKAGIAAPGVGDRLAVKRLIAKIREMARQMNCPMTLQAFGVDPAKAEELADTVVANAKKDATFPGNPVVPSDNDLKMVYEAIIR
notes: full length 373 residues (40361 Da), His6 tag from pET21a kept, E. coli BL21(DE3), Ni-NTA purified
Km (purified protein [1]): 0.04 ± 0.01 mM | Vmax (purified protein [1]): 12.6 µmol/min/mg | kcat (purified protein [1]): 8.5 ± 0.5 s⁻¹ | kcat/Km (purified protein [1]): 237000 M⁻¹ s⁻¹ | Km (purified protein [2]): 0.8 ± 0.1 mM | Vmax (purified protein [2]): 3.9 µmol/min/mg | kcat (purified protein [2]): 2.6 ± 0.1 s⁻¹ | kcat/Km (purified protein [2]): 3490 M⁻¹ s⁻¹ | Km (purified protein [3]): 14.5 ± 1.7 mM | Vmax (purified protein [3]): 14.8 µmol/min/mg | kcat (purified protein [3]): 9.9 ± 0.6 s⁻¹ | kcat/Km (purified protein [3]): 640 M⁻¹ s⁻¹
